B1: DQN0429cc//IC17 (bispecific antibody, human IgG1, kappa)
heavy 1: QEQLVESGGGLVQPEGSLTLTCTASGFSFSSSYYMCWVRQAPGKGLEWIGCIYTGSGSTDYATWVNGRFTISKTSSTTVTLQMTSLTVADTATYFCARDIGIDYNFWGPGTLVTVSSASTKGPSVFPLAPSSKSTSGGTAALGCLVKDYFPEPVTVSWNSGALTSGVHTFPAVLQSSGLYSLSSVVTVPSSSLGTQTYICNVNHKPSNTKVDKRVEPKSCDKTHTCPPCPAPELRRGPSVFLFPPKPKDTLMISRTPEVTCVVVDVSHEDPEVKFNWYVDGVEVHNAKTKPREEQYNSTYRVVSVLTVLHQDWLNGKEYKCKVSNKALPAPIEKTISKAKGQPREPQVYTLPPSREEMTKNQVSLTCLVKGFYPSDIAVEWESNGQPENNYKTTPPYLDSDGSFFLYSKLTVDKSRWQQGNVFSCSVMHEALHNHYTQESLSLSP
light 1: AFELTQTPSFVEARVGGTVTIKCQATQSISSYLNWYQQKPGQPPKLLIYYASTLASGVPSRFKGSGSGTEFTLTISGVECADAATYYCHYGISYVSFGGGTKVEIKRTVAAPSVFIFPPSDEQLKSGTASVVCLLNNFYPREAKVQWKVDNALQSGNSQESVTEQDSKDCTYSLSSTLTLSKADYEKHKVYACEVTHQGLSSPVTKSFNRGEC
heavy 2: QVQLQQSGPQLVRPGASVKISCKASGYSFTSYWMHWVNQRPGQGLEWIGMIDPSYSETRLNQKFKDKATLTVDKSSSTAYMQLSSPTSEDSAVYYCALYGNYFDYWGQGTTLTVSSASTKGPSVFPLAPSSKSTSGGTAALGCLVKDYFPEPVTVSWNSGALTSGVHTFPAVLQSSGLYSLSSVVTVPSSSLGTQTYICNVNHKPSNTKVDKRVEPKSCDKTHTCPPCPAPELRRGPSVFLFPPKPKDTLMISRTPEVTCVVVDVSHEDPEVKFNWYVDGVEVHNAKTKPREEQYNSTYRVVSVLTVLHQDWLNGKEYKCKVSNKALPAPIEKTISKAKGQPREPQVYTLPPSRKEMTKNQVSLTCLVKGFYPSDIAVEWESNGQPENNYKTTPPYLDSDGSFFLYSKLTVDKSRWQQGNVFSCSVMHEALHNHYTQKSLSLSP
light 2: DIQMTQSSSSFSVSLGDRVTITCKASEDIYNRLAWYQQKPGNAPRLLISGATSLETGVPSRFSGSGSGKDYTLSITSLQTEDVATYYCQQYWSTPYTFGGGTKLEVKRTVAAPSVFIFPPSDEQLKSGTASVVCLLNNFYPREAKVQWKVDNALQSGNSQESVTEQDSKDSTYSLSSTLTLSKADYEKHKVYACEVTHQGLSSPVTKSFNRGEC
B2: IC17 (antibody, V domains shown)
VH: QVQLQQSGPQLVRPGASVKISCKASGYSFTSYWMHWVNQRPGQGLEWIGMIDPSYSETRLNQKFKDKATLTVDKSSSTAYMQLSSPTSEDSAVYYCALYGNYFDYWGQGTTLTVSS
VL: DIQMTQSSSSFSVSLGDRVTITCKASEDIYNRLAWYQQKPGNAPRLLISGATSLETGVPSRFSGSGSGKDYTLSITSLQTEDVATYYCQQYWSTPYTFGGGTKLEVK
notes: also called IC17 bivalent; TC17

Key:
[1] = biological target: T1, HLA-DQ2.5/omega 1 gliadin peptide complex on Ba/F3 cells (human); assay: FACS, Ba/F3 cells; IC17=0%, DQN0139bb//IC17=100%;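 note: flow cytometry binding of anti-HLA-DQ antibodies at 5 µg/mL, incubated 30 min at room temperature with Ba/F3 lines presenting HLA-DQ/peptide complexes; antibody tested at 5 microgram/mL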
T1 construct: whole, on cells; also called Ba/F3-HLA-DQ2.5/omega 1 gliadin; HLA-DQ2.5/w1 gliadin

[2] = biological target: T2, HLA-DQ2.5/hordein 1 peptide complex on Ba/F3 cells (human); assay: FACS, Ba/F3 cells; IC17=0%, DQN0139bb//IC17=100%;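 note: flow cytometry binding of anti-HLA-DQ antibodies at 5 µg/mL, incubated 30 min at room temperature with Ba/F3 lines presenting HLA-DQ/peptide complexes; antibody tested at 5 microgram/mL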
T2 construct: whole, on cells; also called Ba/F3-HLA-DQ2.5/hordein 1

[3] = biological target: T3, HLA-DQ2.5/BC hordein peptide complex on Ba/F3 cells (human); assay: FACS, Ba/F3 cells; IC17=0%, DQN0139bb//IC17=100%;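 note: flow cytometry binding of anti-HLA-DQ antibodies at 5 µg/mL, incubated 30 min at room temperature with Ba/F3 lines presenting HLA-DQ/peptide complexes; antibody tested at 5 microgram/mL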
T3 construct: whole, on cells; also called Ba/F3-HLA-DQ2.5/BC hordein

[4] = biological target: T4, HLA-DQ2.5/secalin 1 peptide complex on Ba/F3 cells (human); assay: FACS, Ba/F3 cells; IC17=0%, DQN0139bb//IC17=100%;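 note: flow cytometry binding of anti-HLA-DQ antibodies at 5 µg/mL, incubated 30 min at room temperature with Ba/F3 lines presenting HLA-DQ/peptide complexes; antibody tested at 5 microgram/mL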
T4 construct: whole, on cells; also called Ba/F3-HLA-DQ2.5/secalin 1

[5] = biological target: T5, HLA-DQ2.5/alpha 1 gliadin peptide complex on Ba/F3 cells (human); assay: FACS, Ba/F3 cells; IC17=0%, DQN0139bb//IC17=100%
T5 construct: whole, on cells; also called Ba/F3-HLA-DQ2.5/alpha 1 gliadin; HLA-DQ2.5/a1 gliadin

[6] = biological target: T6, HLA-DQ2.5/alpha 1b gliadin peptide complex on Ba/F3 cells (human); assay: FACS, Ba/F3 cells; IC17=0%, DQN0139bb//IC17=100%
T6 construct: whole, on cells; also called Ba/F3-HLA-DQ2.5/alpha 1b gliadin; HLA-DQ2.5/a1b gliadin

HLA-DQ2.2 on Ba/F3 cells = biological target: T7, HLA-DQ2.2 on Ba/F3 cells (human, UniProt P01909 24-216, limits assumed); assay: FACS, Ba/F3 cells; IC17=0%, DQN0139bb//IC17=100%
T7 construct: whole, on cells; also called Ba/F3-HLA-DQ2.2
T7 MHC II alpha: not shown
T7 MHC II beta: not shown

[7] = biological target: T8, HLA-DQ2.5/alpha 3 gliadin peptide complex on Ba/F3 cells (human); assay: FACS, Ba/F3 cells; IC17=0%, DQN0139bb//IC17=100%
T8 construct: whole, on cells; also called Ba/F3-HLA-DQ2.5/alpha 3 gliadin; HLA-DQ2.5/a3 gliadin

[8] = biological target: T9, HLA-DQ2.5/omega 2 gliadin peptide complex on Ba/F3 cells (human); assay: FACS, Ba/F3 cells; IC17=0%, DQN0139bb//IC17=100%
T9 construct: whole, on cells; also called Ba/F3-HLA-DQ2.5/omega 2 gliadin; HLA-DQ2.5/w2 gliadin

[9] = biological target: T10, HLA-DQ2.5/gamma 1 gliadin peptide complex on Ba/F3 cells (human); assay: FACS, Ba/F3 cells; IC17=0%, DQN0139bb//IC17=100%
T10 construct: whole, on cells; also called Ba/F3-HLA-DQ2.5/gamma 1 gliadin; HLA-DQ2.5/g1 gliadin

[10] = biological target: T11, HLA-DQ2.5/26mer gliadin peptide complex on Ba/F3 cells (human); assay: FACS, Ba/F3 cells; IC17=0%, DQN0139bb//IC17=100%
T11 construct: whole, on cells; also called Ba/F3-HLA-DQ2.5/26mer gliadin

[11] = biological target: T12, HLA-DQ2.5/33mer gliadin peptide complex on Ba/F3 cells (human); assay: FACS, Ba/F3 cells; IC17=0%, DQN0139bb//IC17=100%
T12 construct: whole, on cells; also called Ba/F3-HLA-DQ2.5/33mer gliadin

[12] = biological target: T13, HLA-DQ2.5/gamma 4b gliadin peptide complex on Ba/F3 cells (human); assay: FACS, Ba/F3 cells; IC17=0%, DQN0139bb//IC17=100%
T13 construct: whole, on cells; also called Ba/F3-HLA-DQ2.5/gamma 4b gliadin; HLA-DQ2.5/g4b gliadin

[13] = biological target: T14, HLA-DQ2.5/hordein 2 peptide complex on Ba/F3 cells (human); assay: FACS, Ba/F3 cells; IC17=0%, DQN0139bb//IC17=100%
T14 construct: whole, on cells; also called Ba/F3-HLA-DQ2.5/hordein 2

[14] = biological target: T15, HLA-DQ2.5/alpha 2 gliadin peptide complex on Ba/F3 cells (human); assay: FACS, Ba/F3 cells; IC17=0%, DQN0139bb//IC17=100%
T15 construct: whole, on cells; also called Ba/F3-HLA-DQ2.5/alpha 2 gliadin; HLA-DQ2.5/a2 gliadin

[15] = biological target: T16, HLA-DQ2.5/gamma 2 gliadin peptide complex on Ba/F3 cells (human); assay: FACS, Ba/F3 cells; IC17=0%, DQN0139bb//IC17=100%
T16 construct: whole, on cells; also called Ba/F3-HLA-DQ2.5/gamma 2 gliadin; HLA-DQ2.5/g2 gliadin

[16] = biological target: T17, HLA-DQ2.5/14mer 1 peptide complex on Ba/F3 cells (human); assay: FACS, Ba/F3 cells; IC17=0%, DQN0139bb//IC17=100%
T17 construct: whole, on cells; also called Ba/F3-HLA-DQ2.5/14mer 1

[17] = biological target: T18, HLA-DQ2.5/secalin 2 peptide complex on Ba/F3 cells (human); assay: FACS, Ba/F3 cells; IC17=0%, DQN0139bb//IC17=100%
T18 construct: whole, on cells; also called Ba/F3-HLA-DQ2.5/secalin 2

HLA-DQ6.3 on Ba/F3 cells = biological target: T19, HLA-DQ6.3 on Ba/F3 cells (human, UniProt P01920 33-230, limits assumed); assay: FACS on Ba/F3-HLA-DQ6.3 cells, single antibody concentration, goat F(ab')2 anti-human IgG-PE
T19 construct: whole, on cells; also called Ba/F3-HLA-DQ6.3
T19 MHC II alpha: not shown
T19 MHC II beta: not shown

Binder	% MFI [1] [%]	% MFI [2] [%]	% MFI [3] [%]	% MFI [4] [%]	% MFI [5] [%]	% MFI [6] [%]	% MFI (HLA-DQ2.2 on Ba/F3 cells) [%]	% MFI [7] [%]	% MFI [8] [%]	% MFI [9] [%]	% MFI [10] [%]	% MFI [11] [%]	% MFI [12] [%]	% MFI [13] [%]	% MFI [14] [%]	% MFI [15] [%]	% MFI [16] [%]	% MFI [17] [%]	binding result (HLA-DQ6.3 on Ba/F3 cells)
B1	11.5	1.5	14.9	10.9	3.5	9.2	0.3	0.8	45.4	12.6	26.2	67.1	3.2	93.2	55.5	0.8	16.3	30.6	
B2																			no binding (tested: 5 microgram/mL)
